Measurements reported in IntAct's records for PubMed 29892012.

B1: Genetic suppressor element 1 (Homo sapiens), Q14687 (parent)
chain: MKGMSHEPKSPSLGMLSTATRTTATVNPLTPSPLNGALVPSGSPATSSALSAQAAPSSSFAAALRKLAKQAEEPRGSSLSSESSPVSSPATNHSSPASTPKRVPMGPIIVPPGGHSVPSTPPVVTIAPTKTVNGVWRSESRQDAGSRSSSGGRERLIVEPPLPQEKAGGPAIPSHLLSTPYPFGLSPSSVVQDSRFPPLNLQRPVHHVVPPSTVTEDYLRSFRPYHTTDDLRMSSLPPLGLDPATAAAYYHPSYLAPHPFPHPAFRMDDSYCLSALRSPFYPIPTPGSLPPLHPSAMHLHLSGVRYPPELSHSSLAALHSERMSGLSAERLQMDEELRREREREREREREREADREREKEREREREKEREQEKEREREKERERELERQREQRAREKELLAAKALEPSFLPVAELHGLRGHATEERGKPSEQLTPTRAEKLKDAGLQAPKPVQHPLHPVPTPHHTVPSLISNHGIFSLPSSSAATALLIQRTNEEEKWLARQRRLRQEKEDRQSQVSEFRQQVLEQHLDMGRPPVPAEAEHRPESTTRPGPNRHEPGGRDPPQHFGGPPPLISPKPQLHAAPTALWNPVSLMDNTLETRRAESHSLHSHPAAFEPSRQAAVPLVKVERVFCPEKAEEGPRKREPAPLDKYQPPPPPPREGGSLEHQPFLPGPGPFLAELEKSTQTILGQQRASLPQAATFGELSGPLKPGSPYRPPVPRAPDPAYIYDEFLQQRRRLVSKLDLEERRRREAQEKGYYYDLDDSYDESDEEEVRAHLRCVAEQPPLKLDTSSEKLEFLQLFGLTTQQQKEELVAQKRRKRRRMLRERSPSPPTIQSKRQTPSPRLALSTRYSPDEMNNSPNFEEKKKFLTIFNLTHISAEKRKDKERLVEMLRAMKQKALSAAVADSLTNSPRDSPAVSLSEPATQQASLDVEKPVGVAASLSDIPKAAEPGKLEQVRPQELSRVQELAPASGEKARLSEAPGGKKSLSMLHYIRGAAPKDIPVPLSHSTNGKSKPWEPFVAEEFAHQFHESVLQSTQKALQKHKGSVAVLSAEQNHKVDTSVHYNIPELQSSSRAPPPQHNGQQEPPTARKGPPTQELDRDSEEEEEEDDEDGEDEEEVPKRKWQGIEAVFEAYQEHIEEQNLERQVLQTQCRRLEARHYSLSLTAEQLSHSVAELRSQKQKMVSERERLQAELDHLRKCLALPAMHWPRGYLKGYPR
partner: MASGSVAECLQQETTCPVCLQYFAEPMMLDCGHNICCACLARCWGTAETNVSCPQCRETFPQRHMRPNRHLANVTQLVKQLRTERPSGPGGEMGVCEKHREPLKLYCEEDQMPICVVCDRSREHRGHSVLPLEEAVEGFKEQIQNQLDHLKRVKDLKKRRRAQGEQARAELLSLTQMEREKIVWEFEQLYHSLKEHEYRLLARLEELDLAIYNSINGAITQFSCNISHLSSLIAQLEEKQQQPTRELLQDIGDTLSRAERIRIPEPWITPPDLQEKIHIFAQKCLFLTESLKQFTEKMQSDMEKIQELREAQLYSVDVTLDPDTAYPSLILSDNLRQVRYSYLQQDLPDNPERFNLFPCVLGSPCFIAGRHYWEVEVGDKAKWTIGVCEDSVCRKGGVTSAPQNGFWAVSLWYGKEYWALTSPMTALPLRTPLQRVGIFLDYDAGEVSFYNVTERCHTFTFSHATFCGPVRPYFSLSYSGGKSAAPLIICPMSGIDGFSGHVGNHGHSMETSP
B2: Coiled-coil domain-containing protein 120 (Homo sapiens), Q96HB5-4 (parent)
chain: MRREPRYQGQVGPDIHTDSERTLSSHQPRPLDSTKMEVKGQLISSPTFNAPAALFGEAAPQVKSERLRGLLDRQRTLQEALSLKLQELRKVCLQEAELTGQLPPECPLEPGERPQLVRRRPPTARAYPPPHPNQAHHSLCPAEELALEALEREVSVQQQIAAAARRLALAPDLSTEQRRRRRQVQADALRRLHELEEQLRDVRARLGLPVLPLPQPLPLSTGSVITTQGVCLGMRLAQLSQEDVVLHSESSSLSESGASHDNEEPHGCFSLAERPSPPKAWDQLRAVSGGSPERRTPWKPPPSDLYGDLKSRRNSVASPTSPTRSLPRSASSFEGRSVPATPVLTRGAGPQLCKPEGLHSRQWSGSQDSQMGFPRADPASDRASLFVARTRRSNSSEALLVDRAAGGGAGSPPAPLAPSASGPPVCKSSEVLYERPQPTPAFSSRTAGPPDPPRAARPSSAAPASRGAPRLPPVCGDFLLDYSLDRGLPRSGGGTGWGELPPAAEVPGPLSRRDGLLTMLPGPPPVYAADSNSPLLRTKDPHTRATRTKPCGLPPEAAEGPEVHPNPLLWMPPPTRIPSAGERSGHKNLALEGLRDWYIRNSGLAAGPQRRPVLPSVGPPHPPFLHARCYEVGQALYGAPSQAPLPHSRSFTAPPVSGRYYADFLYPPELSARLSDLTLEGEQSSSSDTQTPGTLV
partner: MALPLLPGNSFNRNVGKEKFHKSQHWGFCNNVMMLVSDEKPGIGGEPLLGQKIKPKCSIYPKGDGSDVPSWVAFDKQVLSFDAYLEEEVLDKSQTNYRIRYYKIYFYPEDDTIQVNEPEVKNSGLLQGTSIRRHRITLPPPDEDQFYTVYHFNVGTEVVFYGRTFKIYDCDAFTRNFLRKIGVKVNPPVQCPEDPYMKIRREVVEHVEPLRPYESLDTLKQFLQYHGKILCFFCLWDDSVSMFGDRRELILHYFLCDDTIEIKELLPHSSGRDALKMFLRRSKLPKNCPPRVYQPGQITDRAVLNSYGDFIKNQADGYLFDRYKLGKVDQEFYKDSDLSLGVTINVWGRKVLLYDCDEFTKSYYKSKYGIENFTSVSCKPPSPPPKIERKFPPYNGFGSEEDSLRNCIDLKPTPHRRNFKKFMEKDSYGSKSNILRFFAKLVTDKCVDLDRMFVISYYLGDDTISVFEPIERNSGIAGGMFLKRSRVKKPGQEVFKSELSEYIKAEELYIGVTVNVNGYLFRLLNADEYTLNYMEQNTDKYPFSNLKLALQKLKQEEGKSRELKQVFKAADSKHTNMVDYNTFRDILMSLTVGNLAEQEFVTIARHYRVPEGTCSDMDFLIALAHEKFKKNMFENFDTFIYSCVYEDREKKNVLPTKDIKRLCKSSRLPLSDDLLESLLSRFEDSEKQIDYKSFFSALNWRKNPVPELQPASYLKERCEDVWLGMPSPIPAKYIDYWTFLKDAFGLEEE
B3: Keratin, type I cuticular Ha8 (Homo sapiens), O76015 (parent)
chain: MTSSYSSSSCPLGCTMAPGARNVSVSPIDIGCQPGAEANIAPMCLLANVAHANRVRVGSTPLGRPSLCLPPTCHTACPLPGTCHIPGNIGICGAYGENTLNGHEKETMQFLNDRLANYLEKVRQLEQENAELEATLLERSKCHESTVCPDYQSYFHTIEELQQKILCSKAENARLIVQIDNAKLAADDFRIKLESERSLRQLVEADKCGTQKLLDDATLAKADLEAQQESLKEEQLSLKSNHEQEVKILRSQLGEKLRIELDIEPTIDLNRVLGEMRAQYEAMLETNRQDVEQWFQAQSEGISLQDMSCSEELQCCQSEILELRCTVNALEVERQAQHTLKDCLQNSLCEAEDRFGTELAQMQSLISNVEEQLSEIRADLERQNQEYQVLLDVKTRLENEIATYRNLLESEDCKLPCNPCSTSPSCVTAPCAPRPSCGPCTTCGPTCGASTTGSRF
partner: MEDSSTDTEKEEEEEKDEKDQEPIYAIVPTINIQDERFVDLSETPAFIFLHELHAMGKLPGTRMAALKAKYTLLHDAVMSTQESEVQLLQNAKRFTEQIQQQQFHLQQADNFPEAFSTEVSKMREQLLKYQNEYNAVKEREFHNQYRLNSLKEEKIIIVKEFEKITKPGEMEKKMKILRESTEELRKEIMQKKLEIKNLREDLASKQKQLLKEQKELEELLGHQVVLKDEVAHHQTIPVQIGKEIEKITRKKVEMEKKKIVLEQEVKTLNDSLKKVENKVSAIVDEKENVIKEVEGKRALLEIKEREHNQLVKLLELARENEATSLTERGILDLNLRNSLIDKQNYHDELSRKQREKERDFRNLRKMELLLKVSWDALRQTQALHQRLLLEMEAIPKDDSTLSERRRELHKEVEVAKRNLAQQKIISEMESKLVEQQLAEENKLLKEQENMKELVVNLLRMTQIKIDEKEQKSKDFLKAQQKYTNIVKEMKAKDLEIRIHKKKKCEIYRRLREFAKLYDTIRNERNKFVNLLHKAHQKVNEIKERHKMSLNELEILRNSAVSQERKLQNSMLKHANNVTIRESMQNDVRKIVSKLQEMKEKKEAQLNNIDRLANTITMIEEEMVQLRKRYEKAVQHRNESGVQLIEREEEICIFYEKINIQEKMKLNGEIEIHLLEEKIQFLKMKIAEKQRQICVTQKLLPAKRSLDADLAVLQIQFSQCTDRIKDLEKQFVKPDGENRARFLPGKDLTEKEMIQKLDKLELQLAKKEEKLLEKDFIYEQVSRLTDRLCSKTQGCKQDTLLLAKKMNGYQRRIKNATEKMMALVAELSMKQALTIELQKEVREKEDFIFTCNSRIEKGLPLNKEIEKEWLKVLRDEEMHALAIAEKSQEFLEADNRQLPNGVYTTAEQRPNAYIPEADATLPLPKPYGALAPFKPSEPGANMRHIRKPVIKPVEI
B4: Keratin, type I cuticular Ha8 (Homo sapiens), O76015 (parent)
chain: B3 chain
partner: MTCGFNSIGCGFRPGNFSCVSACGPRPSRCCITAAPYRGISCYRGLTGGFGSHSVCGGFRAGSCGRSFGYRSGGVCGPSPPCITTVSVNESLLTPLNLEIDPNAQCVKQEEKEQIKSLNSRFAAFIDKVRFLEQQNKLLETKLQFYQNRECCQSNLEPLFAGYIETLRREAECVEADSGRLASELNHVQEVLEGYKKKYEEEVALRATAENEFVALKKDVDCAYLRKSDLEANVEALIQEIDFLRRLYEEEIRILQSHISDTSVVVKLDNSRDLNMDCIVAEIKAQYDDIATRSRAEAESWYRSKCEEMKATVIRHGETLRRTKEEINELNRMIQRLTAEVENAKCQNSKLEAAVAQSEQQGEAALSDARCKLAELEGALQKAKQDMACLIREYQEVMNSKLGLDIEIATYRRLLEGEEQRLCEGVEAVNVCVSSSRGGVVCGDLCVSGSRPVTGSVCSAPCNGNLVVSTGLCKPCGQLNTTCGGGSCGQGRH

Variants of: B1
Conditions: with tri27_human TRIM27, P14373

Variant | effect of a mutation on the interaction
R503Q | with no effect

Variants of: B2
Conditions: with efhc2_human EFHC2, Q5JST6

Variant | effect of a mutation on the interaction
R346W | with no effect

Variants of: B3
Conditions: with cc146_human CCDC146, Q8IYE0

Variant | effect of a mutation on the interaction
D306A | with no effect

Variants of: B3
Conditions: with cc146_human CCDC146, Q8IYE0
Remark: another data set of the same source

Variant | effect of a mutation on the interaction
N270K | with no effect

Variants of: B4
Conditions: with krt83_human KRT83, P78385

Variant | effect of a mutation on the interaction
D306A | with no effect
